Measured values: patent US20190389910A1 (ORUM THERAPEUTICS, published 2019)

Tests used:
[1] = biological target: human recombinant integrin αvβ6 (αv extracellular domain-acidic leucine zipper-His×6 with β6 extracellular domain-basic leucine zipper) (human) (UniProt P06756); assay: BLI (Octet), antibody on AHC biosensor, integrin αvβ6 as analyte
[2] = biological target: human recombinant integrin αvβ6 (αv extracellular domain-acidic leucine zipper-His×6 with β6 extracellular domain-basic leucine zipper) (human) (UniProt P06756); assay: BLI (Octet), antibody captured on anti-human IgG Fc (AHC) biosensor, integrin αvβ6 3.1-100 nM as analyte, divalent cations
[3] = biological target: human recombinant integrin αvβ5 (αv extracellular domain-acidic leucine zipper-His×6 with β5 extracellular domain-basic leucine zipper) (human) (UniProt P06756); assay: BLI (Octet), antibody on AHC biosensor, integrin αvβ5 as analyte
human recombinant integrin αvβ5 (αv extracellular domain-acidic leucine zipper-His×6 with β5 extracellular domain-basic leucine zipper) (human), sequence (P06756 other isoform, or with tags, fused parts or gaps, chain 1 of 2): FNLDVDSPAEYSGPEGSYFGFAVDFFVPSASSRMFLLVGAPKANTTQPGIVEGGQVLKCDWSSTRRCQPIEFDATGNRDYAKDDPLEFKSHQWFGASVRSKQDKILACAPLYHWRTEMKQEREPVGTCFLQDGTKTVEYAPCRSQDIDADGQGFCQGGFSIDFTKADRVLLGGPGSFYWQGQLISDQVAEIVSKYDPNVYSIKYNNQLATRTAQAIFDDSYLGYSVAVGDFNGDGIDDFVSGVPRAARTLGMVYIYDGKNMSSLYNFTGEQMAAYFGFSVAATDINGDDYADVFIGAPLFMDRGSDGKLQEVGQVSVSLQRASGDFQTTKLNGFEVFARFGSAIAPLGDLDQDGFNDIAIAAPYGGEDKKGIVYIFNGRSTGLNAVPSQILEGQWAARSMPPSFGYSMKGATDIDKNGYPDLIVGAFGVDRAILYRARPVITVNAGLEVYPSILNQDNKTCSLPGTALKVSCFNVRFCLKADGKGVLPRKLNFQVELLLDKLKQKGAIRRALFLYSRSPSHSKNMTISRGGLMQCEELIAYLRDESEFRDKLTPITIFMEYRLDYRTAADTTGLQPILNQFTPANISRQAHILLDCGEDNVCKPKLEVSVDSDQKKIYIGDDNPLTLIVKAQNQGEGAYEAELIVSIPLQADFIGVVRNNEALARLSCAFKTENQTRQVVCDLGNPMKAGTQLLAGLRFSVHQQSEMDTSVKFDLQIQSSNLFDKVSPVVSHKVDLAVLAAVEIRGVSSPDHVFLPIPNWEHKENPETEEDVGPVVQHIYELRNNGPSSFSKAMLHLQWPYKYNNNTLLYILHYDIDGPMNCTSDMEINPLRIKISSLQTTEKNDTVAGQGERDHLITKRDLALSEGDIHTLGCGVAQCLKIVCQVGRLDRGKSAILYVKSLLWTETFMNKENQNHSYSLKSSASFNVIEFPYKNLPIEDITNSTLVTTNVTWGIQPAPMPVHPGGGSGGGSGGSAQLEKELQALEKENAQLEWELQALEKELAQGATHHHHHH
human recombinant integrin αvβ5 (αv extracellular domain-acidic leucine zipper-His×6 with β5 extracellular domain-basic leucine zipper) (human), sequence (chain, as listed by the source, chain 2 of 2): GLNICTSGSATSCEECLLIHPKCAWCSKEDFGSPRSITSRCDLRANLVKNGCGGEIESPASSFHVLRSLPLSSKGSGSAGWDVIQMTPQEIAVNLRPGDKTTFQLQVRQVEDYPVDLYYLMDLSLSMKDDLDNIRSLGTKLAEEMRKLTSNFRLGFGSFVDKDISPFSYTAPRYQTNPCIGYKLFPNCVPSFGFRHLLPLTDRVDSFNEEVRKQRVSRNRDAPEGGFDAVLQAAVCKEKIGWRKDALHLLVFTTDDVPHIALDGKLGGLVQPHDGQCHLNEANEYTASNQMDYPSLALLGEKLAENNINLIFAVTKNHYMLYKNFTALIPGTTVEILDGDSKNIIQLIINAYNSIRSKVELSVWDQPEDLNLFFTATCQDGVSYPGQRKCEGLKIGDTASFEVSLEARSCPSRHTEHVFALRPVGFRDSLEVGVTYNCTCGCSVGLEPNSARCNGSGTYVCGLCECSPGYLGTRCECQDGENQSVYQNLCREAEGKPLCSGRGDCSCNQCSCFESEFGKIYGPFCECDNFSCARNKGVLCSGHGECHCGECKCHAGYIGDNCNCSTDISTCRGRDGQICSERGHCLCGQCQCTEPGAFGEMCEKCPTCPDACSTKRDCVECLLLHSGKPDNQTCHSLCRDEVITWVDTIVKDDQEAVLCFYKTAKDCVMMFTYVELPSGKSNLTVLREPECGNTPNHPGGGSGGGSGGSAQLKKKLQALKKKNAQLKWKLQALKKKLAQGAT

[4] = biological target: human recombinant integrin αvβ5 (αv extracellular domain-acidic leucine zipper-His×6 with β5 extracellular domain-basic leucine zipper) (human) (UniProt P06756); assay: BLI (Octet), antibody captured on anti-human IgG Fc (AHC) biosensor, integrin αvβ5 3.1-100 nM as analyte, divalent cations
[5] = biological target: heparan sulfate proteoglycan (HSPG) expressed on HeLa cells; assay: cell-based or functional assay
[6] = biological target: T1, EpCAM (epithelial cell adhesion molecule) expressed on the cell surface of human tumor cells (human, UniProt P16422 24-314); assay: flow cytometry on HCT116 and SW480 cells; 100 nM antibody with 300 IU/mL heparin, Alexa488 anti-human Fc
T1 construct: whole, on cells; also called cell surface EpCAM; EpCAM receptor
T1 sequence (looked up): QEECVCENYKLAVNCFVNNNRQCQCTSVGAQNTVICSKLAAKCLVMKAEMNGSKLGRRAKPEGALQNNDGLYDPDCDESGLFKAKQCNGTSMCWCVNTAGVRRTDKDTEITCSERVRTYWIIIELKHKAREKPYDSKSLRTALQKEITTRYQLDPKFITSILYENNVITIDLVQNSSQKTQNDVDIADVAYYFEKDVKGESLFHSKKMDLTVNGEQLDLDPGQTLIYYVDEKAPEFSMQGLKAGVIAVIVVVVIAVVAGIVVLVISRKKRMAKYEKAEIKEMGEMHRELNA
Method: Cell surface-binding levels of the indicated CTs, coincubated at 100 nM with 300 IU/mL heparin for 1 h at 4° C. with the indicated cells before analysis (lower panels). An isotype control is used as a negative control.
Then, each antibody was reacted with antibodies specific for human Fc to which Alexa488 (green fluorescence) was linked, at 4° C. for 30 min. After washing with PBS, the cells were analyzed by flow cytometry.

human recombinant integrin αvβ6 (αv extracellular domain-acidic leucine zipper-His×6 with β6 extracellular domain-basic leucine zipper) (human), sequence (P06756 other isoform, or with tags, fused parts or gaps, chain 1 of 2): as the sequence (P06756 other isoform, or with tags, fused parts or gaps, chain 1 of 2) above
human recombinant integrin αvβ6 (αv extracellular domain-acidic leucine zipper-His×6 with β6 extracellular domain-basic leucine zipper) (human), sequence (chain, as listed by the source, chain 2 of 2): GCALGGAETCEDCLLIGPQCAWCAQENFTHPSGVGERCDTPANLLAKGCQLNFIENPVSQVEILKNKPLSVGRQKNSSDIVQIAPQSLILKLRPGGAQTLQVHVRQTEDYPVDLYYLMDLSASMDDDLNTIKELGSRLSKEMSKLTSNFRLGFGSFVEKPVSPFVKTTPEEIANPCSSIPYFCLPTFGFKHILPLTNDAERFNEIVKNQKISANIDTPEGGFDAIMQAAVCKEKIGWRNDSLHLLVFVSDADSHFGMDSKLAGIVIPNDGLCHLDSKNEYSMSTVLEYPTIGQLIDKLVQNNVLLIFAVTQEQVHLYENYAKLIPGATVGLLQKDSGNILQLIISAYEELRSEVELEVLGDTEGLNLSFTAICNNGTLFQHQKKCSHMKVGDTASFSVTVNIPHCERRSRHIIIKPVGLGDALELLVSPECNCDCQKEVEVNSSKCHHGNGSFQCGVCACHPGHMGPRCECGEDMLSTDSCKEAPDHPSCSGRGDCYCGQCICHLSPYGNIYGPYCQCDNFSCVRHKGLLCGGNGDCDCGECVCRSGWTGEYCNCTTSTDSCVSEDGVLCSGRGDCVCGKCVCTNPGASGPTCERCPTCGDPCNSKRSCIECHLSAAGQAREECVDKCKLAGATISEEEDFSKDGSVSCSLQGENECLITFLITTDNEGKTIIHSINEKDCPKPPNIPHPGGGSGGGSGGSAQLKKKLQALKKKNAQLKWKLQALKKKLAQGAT

B1: 6#6-Ras03 (antibody, part only; not given: RT22 heavy chain, light constant, V domains shown, not shown: another chain or arm of the molecule; a dimerising Fc or GST)
VL: LGPLPCQTRGDLFSLCHYMGSSSNDIQMTQSPSSLSASVGDRVTITCKSSQSLLNSRDGKNYLAWYQQKPGKAPKLLIYWASTRESGVPSRFSGSGSGTDFTLTISSLQPEDFATYFCQQYWYWMYTFGQGTKVEIK
modifications: chain 1: disulfide bond Cys6-Cys16 closes the cyclic peptide
fold higher binding affinity than in4-Ras03 [1]: 12 fold | Kd [2]: 0.843 nM | koff [2]: 0.000182 s⁻¹ | kon [2]: 216000 M⁻¹ s⁻¹

B2: 5#1-Ras03 (antibody, part only; not given: RT22 heavy chain, constant regions, V domains shown, not shown: another chain or arm of the molecule; a dimerising Fc or GST; large carriers; small tags and cut ends)
VL: LPSGACVVRGDTFQCVSVGMGSSSNDIQMTQSPSSLSASVGDRVTITCKSSQSLLNSRDGKNYLAWYQQKPGKAPKLLIYWASTRESGVPSRFSGSGSGTDFTLTISSLQPEDFATYFCQQYWYWMYTFGQGTKVEIK
modifications: chain 1: disulfide bond Cys6-Cys15 closes the 5#1 cyclic peptide
fold higher affinity than in4-Ras03 [3]: 2 fold | Kd [4]: 1.13 nM | koff [4]: 6.39e-05 s⁻¹ | kon [4]: 56700 M⁻¹ s⁻¹

B3: CT05 (antibody, V domains shown)
VH: EVQLVESGGGLVQPGGSLRLSCAASGYTFTSYVMHWVRQAPGKGLEWVSAINPYNDGNYYADSVKGRFTISRDNSRKTLYLQMNSLRAEDTAVYYCARGAYKRGYAMDYWGQGTTVTVSS
VL: DIQMTQSPSSLSASVGDRVTITCKSSQSLLNSRDGKNYLAWYQQKPGKAPKLLIYDASNLETGVPSRFSGSGSGTDFTFTISSLQPEDIATYFCQQYWYWMYTFGGGTKVEIKR
notes: Intact IgG without a cyclic peptide; also called CT05 VL variant
fluorescence intensity of internalized antibody relative to TMab4-WYW (confocal microscopy, HeLa cells, 1 µM, 6 h) [5]: 17.3% | binding result [6]: no binding (tested: 100 nM)
